Data from paper PMC12749841 (Nature Communications, 2025).

Target: importin β (human, UniProt Q14974 1-876)
Test: cryo-EM structure

Sequence of importin β (Q14974 whole entry): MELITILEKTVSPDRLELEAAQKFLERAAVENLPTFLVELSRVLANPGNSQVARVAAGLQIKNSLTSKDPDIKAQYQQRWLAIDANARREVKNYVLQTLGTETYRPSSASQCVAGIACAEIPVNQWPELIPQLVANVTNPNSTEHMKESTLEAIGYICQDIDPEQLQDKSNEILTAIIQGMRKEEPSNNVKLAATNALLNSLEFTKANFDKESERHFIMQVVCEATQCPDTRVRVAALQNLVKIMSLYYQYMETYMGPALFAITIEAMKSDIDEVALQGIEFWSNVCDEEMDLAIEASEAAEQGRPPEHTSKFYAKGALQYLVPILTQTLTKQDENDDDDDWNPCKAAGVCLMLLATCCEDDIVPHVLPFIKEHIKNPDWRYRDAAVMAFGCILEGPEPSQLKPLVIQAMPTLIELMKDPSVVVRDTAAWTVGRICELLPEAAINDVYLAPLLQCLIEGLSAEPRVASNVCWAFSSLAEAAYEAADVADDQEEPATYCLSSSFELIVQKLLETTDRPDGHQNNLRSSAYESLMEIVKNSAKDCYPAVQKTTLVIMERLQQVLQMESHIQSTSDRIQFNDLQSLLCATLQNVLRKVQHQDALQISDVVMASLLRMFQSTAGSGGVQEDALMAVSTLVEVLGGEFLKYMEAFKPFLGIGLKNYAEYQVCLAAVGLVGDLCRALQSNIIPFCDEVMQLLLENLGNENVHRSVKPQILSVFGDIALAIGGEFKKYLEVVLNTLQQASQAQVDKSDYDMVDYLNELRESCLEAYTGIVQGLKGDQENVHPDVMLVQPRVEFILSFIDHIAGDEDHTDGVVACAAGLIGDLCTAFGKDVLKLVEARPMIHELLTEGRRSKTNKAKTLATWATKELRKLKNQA

binding result: binds
B1: importin α1 IBB domain (res 1–65) fused to 6xHis Maltose Binding Protein (domain or fragment)
chain: not shown
